Measured values reported in US20230203129A1 (BRACCO IMAGING S P A, published 2023).

Columns and labels:
Experiment in all cases: ELISA during and after library selection
[1] = target: T1, murine serum albumin (murine, UniProt P07724 25-608)
T1 construct: also called MSA; mouse serum albumin

[2] = target: T2, human serum albumin (human, UniProt P02768 25-609)
T2 construct: also called HSA

[3] = target: T3, bovine serum albumin (bovine, UniProt P02769 25-607)
T3 construct: also called BSA
T3 sequence (P02769 25-607 limits assumed): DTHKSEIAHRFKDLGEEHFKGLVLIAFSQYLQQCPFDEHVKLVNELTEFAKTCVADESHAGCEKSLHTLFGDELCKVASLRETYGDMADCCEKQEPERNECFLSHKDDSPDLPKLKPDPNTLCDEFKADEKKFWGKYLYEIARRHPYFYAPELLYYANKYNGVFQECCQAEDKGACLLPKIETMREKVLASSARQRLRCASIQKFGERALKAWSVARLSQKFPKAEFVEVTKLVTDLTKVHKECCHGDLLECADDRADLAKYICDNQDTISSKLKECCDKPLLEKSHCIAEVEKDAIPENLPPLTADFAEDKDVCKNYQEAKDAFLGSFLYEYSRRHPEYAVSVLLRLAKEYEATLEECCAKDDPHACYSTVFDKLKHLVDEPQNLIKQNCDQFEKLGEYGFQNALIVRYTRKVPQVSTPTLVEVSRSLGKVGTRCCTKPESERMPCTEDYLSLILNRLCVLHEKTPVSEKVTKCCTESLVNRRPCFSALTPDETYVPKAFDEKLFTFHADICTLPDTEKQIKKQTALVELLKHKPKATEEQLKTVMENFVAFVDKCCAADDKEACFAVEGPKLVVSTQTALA

T2 sequence (P02768 25-609 limits assumed): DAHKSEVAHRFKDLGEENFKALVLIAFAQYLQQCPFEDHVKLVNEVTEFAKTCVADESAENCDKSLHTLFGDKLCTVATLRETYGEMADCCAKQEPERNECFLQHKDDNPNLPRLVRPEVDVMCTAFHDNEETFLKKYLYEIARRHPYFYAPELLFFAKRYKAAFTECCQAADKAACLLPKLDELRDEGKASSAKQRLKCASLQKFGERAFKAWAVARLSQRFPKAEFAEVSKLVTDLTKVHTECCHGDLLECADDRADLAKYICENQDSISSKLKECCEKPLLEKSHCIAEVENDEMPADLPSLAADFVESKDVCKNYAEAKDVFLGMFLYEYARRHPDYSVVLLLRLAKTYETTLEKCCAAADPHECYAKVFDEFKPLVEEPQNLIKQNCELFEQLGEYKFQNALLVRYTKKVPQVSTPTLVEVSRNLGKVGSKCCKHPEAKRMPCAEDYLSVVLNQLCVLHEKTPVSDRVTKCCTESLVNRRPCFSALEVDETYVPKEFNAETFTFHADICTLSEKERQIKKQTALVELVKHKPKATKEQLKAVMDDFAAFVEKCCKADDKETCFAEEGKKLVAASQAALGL

binding result [1]: no binding | binding result [2]: no binding | binding result [3]: no binding
B1: affitin Aff03 (designed binder)
chain: VKVKFGHMGEEKEVDTSKIYAVNRAGKFVHFAYDDNGKFGSGSVPEKDAPKELLDMLARAEREK
